US20060078550

Target: human prothrombin, P00734

B1: recombinant His-tagged porcine fgl2 protein generated by pfgl2bv infection of insect cells (protein)
chain: MKLKLSNWCWLSSAVLAAYGFLVVANNETEEIKDEAAKDACPVRLESRGKCEEVGGCPYQVNLPPLTLQLPKQFGRIEEVFKEVQNLKEIVNSLKKTCQDCRLQADDNRDPGRNGLLSPGTGAPGEADDSRVRELENEVNKLSSDLKNAKEEIDGLQGRLEKLSLVNMNNIENYVDNKVANLTFAVNSLDGKCSSRCPSQEQIQSRPVQHLIYKDCSEYYTIGKRSSEIYRVTPDPKNSSFEVYCDMETMGGGWTVLQARLDGSTNFTRTWRDYKVGFGNLRREFWLGNDKIHLLTKSKDMILRIDLEDFNGIKLYALYDHFYVANEFLKYRLHIGNYNGTAGDALRFSKHYNHDMKYFTTPDRDNDRYPSGNCGLYYSSGWWFDACLSANLNGKYYNQKYRGVRNGIFWGTWPGISEAQPGGYRSSFKEAKMMIRPKYFKP
- thrombin activity (chromogenic substrate Chromozym TH, change in OD 405 nm over time): A significant level of thrombin activity was generated by pfgl2bv-infected cell lysates in contrast to wild-type baculovirus-infected and uninfected controls
